Data as given in paper PMC11665475, “The CTR hydrophobic residues of Nem1 catalytic subunit are required to form a protein phosphatase complex with Spo7 to activate yeast Pah1 PA phosphatase” (The Journal of Biological Chemistry, 2024).

How the values were obtained:
Test in all cases: cell-based or functional assay
[1] = target: T1, protein A-tagged Nem1 Δ(414–446) (S. cerevisiae, UniProt P38757 1-413)
T1 sequence (looked up): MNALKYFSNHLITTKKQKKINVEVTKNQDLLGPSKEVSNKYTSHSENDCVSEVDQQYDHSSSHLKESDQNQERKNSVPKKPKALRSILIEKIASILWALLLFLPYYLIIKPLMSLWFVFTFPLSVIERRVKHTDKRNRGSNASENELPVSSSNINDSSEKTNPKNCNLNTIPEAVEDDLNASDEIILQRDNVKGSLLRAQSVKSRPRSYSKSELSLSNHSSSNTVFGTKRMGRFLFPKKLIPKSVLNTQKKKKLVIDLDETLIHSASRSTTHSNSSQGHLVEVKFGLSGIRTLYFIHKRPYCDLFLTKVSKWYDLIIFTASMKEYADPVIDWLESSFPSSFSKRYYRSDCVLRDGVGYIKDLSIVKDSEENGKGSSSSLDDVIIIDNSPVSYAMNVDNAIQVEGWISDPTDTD

protein A-tagged Nem1 8A = target: T2, protein A-tagged Nem1 8A (S. cerevisiae, UniProt P38757 1-446, L414 A | L415 A | L417 A | L418 A | L421 A | V430 A | L434 A | L436 A)
T2 sequence (looked up): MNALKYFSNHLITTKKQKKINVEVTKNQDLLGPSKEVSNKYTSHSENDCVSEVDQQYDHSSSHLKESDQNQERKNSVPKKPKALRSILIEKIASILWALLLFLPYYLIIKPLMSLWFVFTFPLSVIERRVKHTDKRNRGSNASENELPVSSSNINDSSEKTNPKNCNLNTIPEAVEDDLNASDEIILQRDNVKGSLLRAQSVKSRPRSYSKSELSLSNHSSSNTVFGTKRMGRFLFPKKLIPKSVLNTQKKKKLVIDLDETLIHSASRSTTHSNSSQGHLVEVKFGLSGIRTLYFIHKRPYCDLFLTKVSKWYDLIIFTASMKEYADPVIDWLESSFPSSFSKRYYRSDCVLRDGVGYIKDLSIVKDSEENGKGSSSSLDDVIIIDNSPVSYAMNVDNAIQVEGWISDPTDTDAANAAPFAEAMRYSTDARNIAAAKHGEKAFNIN

protein A-tagged Nem1 8R = target: T3, protein A-tagged Nem1 8R (S. cerevisiae, UniProt P38757 1-446, L414 R | L415 R | L417 R | L418 R | L421 R | V430 R | L434 R | L436 R)
T3 sequence (looked up): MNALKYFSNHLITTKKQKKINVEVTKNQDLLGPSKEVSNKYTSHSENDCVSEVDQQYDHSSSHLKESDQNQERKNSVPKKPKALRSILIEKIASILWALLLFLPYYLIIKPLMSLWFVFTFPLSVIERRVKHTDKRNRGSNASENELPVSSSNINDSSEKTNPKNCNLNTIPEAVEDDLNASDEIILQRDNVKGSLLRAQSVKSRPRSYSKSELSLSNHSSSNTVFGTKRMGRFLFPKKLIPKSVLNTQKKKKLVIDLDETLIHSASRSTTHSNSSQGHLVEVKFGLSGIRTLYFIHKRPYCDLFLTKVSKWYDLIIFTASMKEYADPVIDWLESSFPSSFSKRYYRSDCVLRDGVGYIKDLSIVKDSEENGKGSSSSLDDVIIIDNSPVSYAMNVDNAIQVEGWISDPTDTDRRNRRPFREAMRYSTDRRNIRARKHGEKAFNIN

share of purified phosphorylated Pah1 found in the pellet of membranes containing the Nem1-PtA variant and Spo7 after centrifugation at 100,000g (translocation of Pah1 to membranes) [1]: ≤ 20% | share of purified phosphorylated Pah1 found in the pellet of membranes containing the Nem1-PtA variant and Spo7 after centrifugation at 100,000g (translocation of Pah1 to membranes) (protein A-tagged Nem1 8A): ≤ 20% | share of purified phosphorylated Pah1 found in the pellet of membranes containing the Nem1-PtA variant and Spo7 after centrifugation at 100,000g (translocation of Pah1 to membranes) (protein A-tagged Nem1 8R): ≤ 20%
B1: Spo7 (natural protein, S. cerevisiae, UniProt P18410 1-259, looked up)
chain: MEPESIGDVGNHAQDDSASIVSGPRRRSTSKTSSAKNIRNSSNISPASMIFRNLLILEDDLRRQAHEQKILKWQFTLFLASMAGVGAFTFYELYFTSDYVKGLHRVILQFTLSFISITVVLFHISGQYRRTIVIPRRFFTSTNKGIRQFNVKLVKVQSTWDEKYTDSVRFVSRTIAYCNIYCLKKFLWLKDDNAIVKFWKSVTIQSQPRIGAVDVKLVLNPRAFSAEIREGWEIYRDEFWAREGARRRKQAHELRPKSE
